Laboratory results: US12391751B2, “Antibody against advanced glycation end products and use thereof” (Bloom Technology Corporation, priority 2018, dated 2025)
Blank lines part the entries; values can stand above or below the molecule they belong to.

What was measured:
Assay type in all cases: binding
CML-BSA = CML-BSA (Bos taurus, UniProt P02769); test: Specificity of SJ-5 by competitive ELISA (Example 7); conditions: GAL13-BSA or Glycer-AGEs-BSA immobilized, POD-labeled SJ-5 0.4 μg/mL
Protocol: (§1) GAL13-BSA or Glycer-AGEs-BSA prepared into 1 μg/mL with PBS (pH 7.4) was added as an immobilized antigen at 100 μL/well to a 96-well microtiter plate (NUNC) and left at 25° C. for 1 hour. The antigen was immobilized overnight at 4° C. The plate was washed three times with PBS containing 0.05% (v/v) Tween 20 (PBS-T) and then blocked with a carbonate buffer solution (pH 9.5) containing 0.5% (w/v) gelatin for 1 hour. A POD-labeled SJ-5 antibody (0.4 μg/mL) was prepared under the same conditions as in Example 6. In order to confirm specificity, BSA containing AGEs derived from glucose (Glu-AGEs-BSA), BSA containing AGEs derived from glycolaldehyde (Glycol-AGEs-BSA), BSA containing AGEs derived from methylglyoxal (MGO-AGEs-BSA), BSA containing AGEs derived from glyoxal (GO-AGEs-BSA), BSA containing N^ε-carboxymethyllysine (CML-BSA), BSA containing N^ε-carboxyethyllysine (CEL-BSA), and bovine serum albumin (BSA) were added at 50 μL/well to the antigen-immobilized plate in the same way as above, and the POD-labeled SJ-5 antibody (50 μL) was further added thereto, and stirred with a plate mixer, and then left standing at room temperature for 1 hour. After washing, an o-phenylenediamine solution (100 μL) prepared into 0.5 mg/mL with a 0.1 M citrate-phosphate buffer solution (pH 5.0) containing 0.02% (w/v) hydrogen peroxide was added to each well and left standing at 25° C. for 10 minutes. Then, color reaction was terminated by the addition of a 1 M sulfuric acid solution (50 μL) to each well. Then, absorbance at 490 nm was measured with a microplate reader.

CEL-BSA = CEL-BSA (Bos taurus, UniProt P02769); test: as above; conditions: GAL13-BSA or Glycer-AGEs-BSA immobilized, POD-labeled SJ-5 0.4 μg/mL
Protocol: as §1

Glycol-AGEs-BSA [1] = molecular target: T1, Glycol-AGEs-BSA (Bos taurus, UniProt P02769); test: as above; conditions: GAL13-BSA or Glycer-AGEs-BSA immobilized, POD-labeled SJ-5 0.4 μg/mL
Protocol: as §1

Glu-AGEs-BSA [2] = molecular target: T2, Glu-AGEs-BSA (Bos taurus, UniProt P02769); test: as above; conditions: GAL13-BSA or Glycer-AGEs-BSA immobilized, POD-labeled SJ-5 0.4 μg/mL
Protocol: as §1

GO-AGEs-BSA [3] = molecular target: T3, GO-AGEs-BSA (Bos taurus, UniProt P02769); test: as above; conditions: GAL13-BSA or Glycer-AGEs-BSA immobilized, POD-labeled SJ-5 0.4 μg/mL
Protocol: as §1

Glycer-AGEs-BSA [4] = molecular target: T4, Glycer-AGEs-BSA (Bos taurus, UniProt P02769); test: as above; conditions: GAL13-BSA or Glycer-AGEs-BSA immobilized, POD-labeled SJ-5 0.4 μg/mL
Protocol: as §1

MGO-AGEs-BSA [5] = molecular target: T5, MGO-AGEs-BSA (Bos taurus, UniProt P02769); test: as above; conditions: GAL13-BSA or Glycer-AGEs-BSA immobilized, POD-labeled SJ-5 0.4 μg/mL
Protocol: as §1

Glycol-AGEs-BSA [6] = molecular target: T1, Glycol-AGEs-BSA; test: Specificity of PB-1 by competitive ELISA (Example 30); conditions: A-peak-BSA or Glycer-AGEs-BSA immobilized, competitor 10 μg/mL, PB-1 0.05 μg/mL
Protocol: (§2) A-peak-BSA or Glycer-AGEs-BSA prepared into a concentration of 1 μg/mL with a coating solution (Example 13) was added at 100 μL/well to a 96-well microtiter plate (Costar) and immobilized overnight at 4° C.
(§3) The plate was washed three times with PBS containing 0.05% (v/v) Tween 20 (PBS-T) and then blocked with PBS-T containing 0.5% (w/v) gelatin for 1 hour.
(§4) Bovine serum albumin (BSA), BSA containing AGEs derived from glucose (Glu-AGEs-BSA), BSA containing AGEs derived from fructose (Fru-AGEs-BSA), BSA containing AGEs derived from glycolaldehyde (Glycol-AGEs-BSA), BSA containing AGEs derived from glyceraldehyde (Glycer-AGEs-BSA), BSA containing NE-carboxyethyllysine (CEL-AGEs-BSA), BSA containing NE-carboxymethyllysine (CML-AGEs-BSA), BSA containing AGEs derived from glyoxal (GO-AGEs-BSA), BSA containing AGEs derived from methylglyoxal (MGO-AGEs-BSA), and A-peak-BSA diluted into 10 μg/mL with PBS-T containing 0.1% (w/v) gelatin were each added at 50 μL/well to the antigen-immobilized plate, and the PB-1 antibody diluted into 0.05 μg/mL with PBS-T containing 0.1% (w/v) gelatin was further added at 50 μL/well, stirred with a plate mixer, and then left standing at room temperature for 1 hour.
(§5) After washing, peroxidase-labeled anti-mouse IgG (H+L) polyclonal antibody, F(ab′)2 fragment (Kirkegaard & Perry Laboratories, Inc.) diluted into 0.05 μg/mL with PBS-T containing 0.1% (w/v) gelatin was added at 100 μL/well and left standing at room temperature for 1 hour.
(§6) After washing, ELISA POD substrate TMB kit (Nacalai Tesque, Inc.) was added at 100 μL/well and left standing at room temperature in the dark. Ten minutes later, color development was terminated by the addition of 2 N sulfuric acid (50 μL/well). Absorbance was measured at a dominant wavelength of 450 nm and a sub-wavelength of 650 nm with a microplate reader (Cytation 5, BioTek Instrument Inc.), and the absorbance at the sub-wavelength was subtracted from the absorbance at the dominant wavelength.
(§7) The ordinate of the graph depicts change in absorbance relative to that of control BSA defined as 1. When A-peak-BSA and Glycer-AGEs-BSA were immobilized, the novel monoclonal antibody PB-1 was also positive to Glycol-AGEs-BSA, Glycer-AGEs-BSA, and A-peak-BSA and negative to Glu-AGEs-BSA, Fru-AGEs-BSA, CEL-AGEs-BSA, CML-AGEs-BSA, GO-AGEs-BSA, and MGO-AGEs-BSA in terms of specificity.

Glu-AGEs-BSA [7] = molecular target: T2, Glu-AGEs-BSA; test: as above; conditions: A-peak-BSA or Glycer-AGEs-BSA immobilized, competitor 10 μg/mL, PB-1 0.05 μg/mL
Protocol: as §2, §3, §4, §5, §6, §7

A-peak-BSA = A-peak-BSA (Bos taurus, UniProt P02769); test: as above; conditions: A-peak-BSA or Glycer-AGEs-BSA immobilized, competitor 10 μg/mL, PB-1 0.05 μg/mL
Protocol: as §2, §3, §4, §5, §6, §7

Fru-AGEs-BSA = Fru-AGEs-BSA (Bos taurus, UniProt P02769); test: as above; conditions: A-peak-BSA or Glycer-AGEs-BSA immobilized, competitor 10 μg/mL, PB-1 0.05 μg/mL
Protocol: as §2, §3, §4, §5, §6, §7

CEL-AGEs-BSA = CEL-AGEs-BSA (Bos taurus, UniProt P02769); test: as above; conditions: A-peak-BSA or Glycer-AGEs-BSA immobilized, competitor 10 μg/mL, PB-1 0.05 μg/mL
Protocol: as §2, §3, §4, §5, §6, §7

GO-AGEs-BSA [8] = molecular target: T3, GO-AGEs-BSA; test: as above; conditions: A-peak-BSA or Glycer-AGEs-BSA immobilized, competitor 10 μg/mL, PB-1 0.05 μg/mL
Protocol: as §2, §3, §4, §5, §6, §7

Glycer-AGEs-BSA [9] = molecular target: T4, Glycer-AGEs-BSA; test: as above; conditions: A-peak-BSA or Glycer-AGEs-BSA immobilized, competitor 10 μg/mL, PB-1 0.05 μg/mL
Protocol: as §2, §3, §4, §5, §6, §7

MGO-AGEs-BSA [10] = molecular target: T5, MGO-AGEs-BSA; test: as above; conditions: A-peak-BSA or Glycer-AGEs-BSA immobilized, competitor 10 μg/mL, PB-1 0.05 μg/mL
Protocol: as §2, §3, §4, §5, §6, §7

T4 sequence (P02769 25-607): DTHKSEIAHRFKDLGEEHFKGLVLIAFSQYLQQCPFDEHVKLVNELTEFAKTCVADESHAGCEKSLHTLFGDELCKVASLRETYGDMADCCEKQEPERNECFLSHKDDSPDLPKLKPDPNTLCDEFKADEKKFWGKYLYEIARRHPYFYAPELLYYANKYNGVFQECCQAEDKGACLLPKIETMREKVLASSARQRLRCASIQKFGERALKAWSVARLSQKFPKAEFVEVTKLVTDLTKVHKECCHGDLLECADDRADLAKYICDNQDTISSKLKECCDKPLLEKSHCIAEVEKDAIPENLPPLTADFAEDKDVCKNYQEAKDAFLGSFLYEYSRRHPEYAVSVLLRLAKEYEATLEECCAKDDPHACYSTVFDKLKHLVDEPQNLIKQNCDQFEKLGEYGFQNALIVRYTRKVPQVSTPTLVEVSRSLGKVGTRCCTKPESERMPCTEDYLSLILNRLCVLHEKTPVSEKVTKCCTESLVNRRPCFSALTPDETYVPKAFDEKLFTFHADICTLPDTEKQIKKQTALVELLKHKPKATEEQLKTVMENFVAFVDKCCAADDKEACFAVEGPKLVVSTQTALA
T5 sequence (P02769 25-607): as above
T2 sequence (P02769 25-607): as above
T1 sequence (P02769 25-607): as above
T3 sequence (P02769 25-607): as above
CML-BSA, sequence (P02769 25-607): as above
CEL-AGEs-BSA, sequence (P02769 25-607): as above
A-peak-BSA, sequence (P02769 25-607): as above
Fru-AGEs-BSA, sequence (P02769 25-607): as above
CEL-BSA, sequence (P02769 25-607): as above

- specificity: reactivity with CML-BSA (CML-BSA): negative
- specificity: reactivity with CEL-BSA (CEL-BSA): negative
- specificity: reactivity with Glycol-AGEs-BSA (Glycol-AGEs-BSA [1]): positive
- specificity: reactivity with Glu-AGEs-BSA (Glu-AGEs-BSA [2]): negative
- specificity: reactivity with GO-AGEs-BSA (GO-AGEs-BSA [3]): negative
- specificity: reactivity with Glycer-AGEs-BSA (Glycer-AGEs-BSA [4]): positive
- specificity: reactivity with MGO-AGEs-BSA (MGO-AGEs-BSA [5]): negative
B1: SJ-5: mouse monoclonal antibody raised against GAL13-MSA; heavy-chain variable region SEQ ID NO 4, light-chain variable region SEQ ID NO 8 (antibody, listed as Mus musculus, V domains shown)
VH: EVMLVESGGRLVKPGGSLKLSCAASGFTFSSYGMSWVRQTPEKRLEWVATISGGGSYTYYPDSVKGRFTISRDNVKNNLYLQMSSLRSEDTALYYCARRGAYGDYGWFAYWGQGTLVTVSA
VL: DIVLTQSPATLSVTPGDSVSLSCRASQSINNNLHWYQQKSHESPRLLIKCASQSISGIPSRFSGSGSGTDFTLSINSVETEDFGMYFCQQSNSWPLTFGAGTKLELK

- specificity: reactivity with Glycol-AGEs-BSA (Glycol-AGEs-BSA [6]): positive
- specificity: reactivity with Glu-AGEs-BSA (Glu-AGEs-BSA [7]): negative
- specificity: reactivity with A-peak-BSA (A-peak-BSA): positive
- specificity: reactivity with Fru-AGEs-BSA (Fru-AGEs-BSA): negative
- specificity: reactivity with CEL-AGEs-BSA (CEL-AGEs-BSA): negative
- specificity: reactivity with GO-AGEs-BSA (GO-AGEs-BSA [8]): negative
- specificity: reactivity with Glycer-AGEs-BSA (Glycer-AGEs-BSA [9]): positive
- specificity: reactivity with MGO-AGEs-BSA (MGO-AGEs-BSA [10]): negative
B2: PB-1: mouse monoclonal antibody raised against A-peak-BSA; heavy-chain variable region SEQ ID NO 18, light-chain variable region SEQ ID NO 22 (antibody, listed as Mus musculus, V domains shown)
VH: EVRLQQSGPELVKPGTSVKISCKASGYSFTGYYMHWVKQSPVKSLEWIGRIIPYNGATSYNQNFKDKASLTVDKSSRTAYMDLHSLTSEDSAVYYCARSRYYGRAPYYFDYWGQGTTLTVSS
VL: DVVVTQTPLSLPVSLGDQASISCRSSQSIVHSNGNTYLEWYLQKPGQSPKLLIYKVSNRFSGVPDRISGSGSGTDFTLKISRVEAGDLGVYSCFQGSHVPFTFGSGTKLEIK
